Results: article PMC11059001 (2024)

Target: complement C1q (human, UniProt P02745;P02746;P02747)
Test: MST

complement C1q, sequence (P02745 23-245, chain 1 of 3): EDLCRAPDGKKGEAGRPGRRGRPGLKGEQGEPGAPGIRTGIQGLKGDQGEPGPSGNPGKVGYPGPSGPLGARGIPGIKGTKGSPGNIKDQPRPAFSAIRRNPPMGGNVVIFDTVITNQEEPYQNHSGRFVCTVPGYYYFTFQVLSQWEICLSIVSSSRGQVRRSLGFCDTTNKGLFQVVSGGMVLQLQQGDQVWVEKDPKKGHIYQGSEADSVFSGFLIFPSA
complement C1q, sequence (P02746 28-253, chain 2 of 3): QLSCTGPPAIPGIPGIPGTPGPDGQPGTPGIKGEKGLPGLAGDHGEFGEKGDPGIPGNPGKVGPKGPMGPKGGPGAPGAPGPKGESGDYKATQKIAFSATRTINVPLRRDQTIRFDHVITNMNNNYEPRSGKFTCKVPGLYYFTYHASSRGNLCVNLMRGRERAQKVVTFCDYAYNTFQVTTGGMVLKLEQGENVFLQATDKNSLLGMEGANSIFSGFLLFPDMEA
complement C1q, sequence (P02747 29-245, chain 3 of 3): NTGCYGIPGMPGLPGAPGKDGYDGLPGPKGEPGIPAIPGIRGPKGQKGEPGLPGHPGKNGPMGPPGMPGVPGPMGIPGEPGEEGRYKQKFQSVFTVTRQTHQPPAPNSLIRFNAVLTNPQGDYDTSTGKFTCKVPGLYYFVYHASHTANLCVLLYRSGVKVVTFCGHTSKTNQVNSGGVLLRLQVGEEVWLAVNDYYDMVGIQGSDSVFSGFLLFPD

B1: TsCRT^Δ mutant Y132A/N158A (domain or fragment)
chain: EPTIYLKETFDDGDAWKERWVQSKHKDDYGEWQLSHGKLFADENDMGLKTMQDARFYSLSRKFDKVVDNKDKPLVIVYTVKHEQDIDCGGGYIKLMLENTDLEDFNSDTPARIMFGPDICGPEKRAVHSILWHDGKAYEKRKNAIAMADIFTHAYKLIIFPNNSYEIWVNNDKEAYGRLEDDWTMTEPGSGPVPELYRYKGLGAIGFELWQVKSGTIFDNILITDDPEYAKEFIDKQLEALRPIEKVESDK
modifications: fluorescent label RED-NHS (MO-L011 Monolith Protein Labelling Kit) in the MST assays; chain labelled not stated | fluorescent label RED-NHS (MO-L011 Monolith Protein Labelling Kit) in the MST assays; chain labelled not stated | fluorescent label RED-NHS (MO-L011 Monolith Protein Labelling Kit) in the MST assays; chain labelled not stated
- Kd: 8.89 µM
